{"source": "patent US11767344B2", "about": "“Pharmaceutically acceptable salts of polypeptides and methods of inhibiting the interaction between psd-95 and n-methyl-d-aspartic acid receptor (nmdar)” (BIOCELLS (BEIJING) BIOTECH CO., LTD., priority 2017, dated 2023)", "key": {"[1]": {"test_system": "rat MCAO model", "test": "Therapeutic effect on rat MCAO model (cerebral infarction volume, TTC staining)", "type": "in vivo"}, "[2]": {"test": "Stability analysis of P5 salt solutions (HPLC area normalization)", "conditions": "aqueous solution 2 mg/ml, irradiation (3000 Lx), 10 days", "protocol": "The solutions were subjected to treatments with irradiation (3000 Lx) and high temperature (60° C.) for 10 days. After the treatments, 10 μl of each solution was accurately measured and injected into a liquid chromatograph, and the chromatograms were recorded. The relevant substances were calculated according to the area normalization method to analyze the content and the number of impurity species.\nhigh performance liquid chromatograph (Agilent, 1260 EZChrom); chromatographic column (Agilent, ZORBAX 300SB-C18 (4.6*250 mm, 5 μm) SN: USHH008416); analytical balance (Sartoris, BT25S); filter membrane (Millipore, 0.45 μm PTFE); acetonitrile (MREDA); water (Aqua); TFA (MREDA); and comprehensive drug stability test box (three-box type) (Shanghai Zuocheng Experimental Instrument Co. Ltd, item no. SHH-3SDT).\n(§1) Mobile phase: A 0.065% TFA-water; B 0.05% TFA-ACN\n(§2) Detection wavelength λ=220 nm; flow rate V=1.0 ml/min; temperature T=36° C.\nInjection volume Inj=10 μl\n(§3) Gradient conditions: 0-30 min, B %=5-65%"}, "[3]": {"test": "Stability analysis of P5 salt powders (HPLC area normalization)", "conditions": "powder, 10 days", "protocol": "The three P5 salts in Example 3 in their powder form were subjected to treatments with irradiation (3000 Lx)+ultraviolet (UV), high temperature (60° C.), and high humidity (75% RH) for 10 days. After the treatments, the powders were dissolved in water to prepare a solution at a concentration of 2 mg/ml. 10 μl of each solution was accurately measured and injected into a liquid chromatograph, and the chromatograms were recorded. Relevant substances were calculated according to the area normalization method to analyze the content and the number of impurity species.\nas §1, §2\nInjection volume Inj=10 ul\nas §3"}, "[4]": {"conditions": "irradiation (3000 Lx) + ultraviolet"}}, "note": "Ends that are not written are not given here.", "data": [{"substance": "P5-TFA: trifluoroacetate salt of chimeric peptide P5 (YGRKKRRQRRRYEKLLDTEI) (also: trifluoroacetate salt)", "values": [{"measurement": "cerebral infarction volume as compared with the model group", "setting": "[1]; 10 mg/kg tail vein injection 1 hour after ischemia, 24 h after administration, p<0.01", "result": "significantly reduced"}, {"measurement": "effect in reducing cerebral infarction volume as compared with positive control drug NBP", "setting": "[1]; 10 mg/kg vs NBP 2.5 mg/kg, tail vein injection 1 hour after ischemia, p<0.05", "result": "significantly superior"}, {"measurement": "Number of impurity species", "setting": "[2]", "result": 10}, {"measurement": "Percentage of main peak area", "setting": "[2]", "result": 97.28, "unit": "%"}, {"measurement": "Number of impurity species", "setting": "[3]; high humidity (75% RH)", "result": 1}, {"measurement": "Percentage of main peak area", "setting": "[3]; high humidity (75% RH)", "result": 99.73, "unit": "%"}, {"measurement": "Number of impurity species", "setting": "[3]; high temperature (60° C.)", "result": 3}, {"measurement": "Percentage of main peak area", "setting": "[3]; high temperature (60° C.)", "result": 99.56, "unit": "%"}, {"measurement": "Number of impurity species", "setting": "[3]; [4]", "result": 6}, {"measurement": "Percentage of main peak area", "setting": "[3]; [4]", "result": 98.34, "unit": "%"}]}]}
